From patent US8722856B2, “Anti-MUC1 antibody” (National University Corporation Hokkaido University, priority 2008, dated 2014)

Legend:
[1] = biological target: T1, Biotin-Tn(DT*R)-100 (Compound No. 21) (Homo sapiens, UniProt P15941); assay: Affinity of antibody, Biacore T100, sensor chip SA; assay type: binding; conditions: Biotin-Tn(DT*R)-100 solid-phased
T1 construct: made in house; host or cells: chemical solid-phase synthesis
Text: Biotin-Tn(DT*R)-100 (Compound No. 21) was solid-phased on a sensor chip SA (manufactured by GE Healthcare), and a dissociation constant of each of the following MUC1 antibody, 1B2, PankoMab (manufactured by GLYCOPOPE) currently at a pre-clinical stage, VU-2G7 (manufactured by MONOSAN) which is an antibody obtained by glycopeptide immunization, O.N.272 (manufactured by SantaCruz), C595 (manufactured by Acris), B416 (manufactured by GeneTex), and VU-3C6 (manufactured by Exalpha Biologicals) was analyzed using Biacore T100, and the result was as shown in the following Table 3.

[2] = system: human mammary gland epithelial cell 184A1; assay: Binding of antibody to cell with FACS; assay type: cell-based
Procedure: Whether the MUC1 protein expressed on a surface of a cancer cell membrane and the 1B2 antibody bound thereto was investigated by FACS. A human breast cancer cell strain T-47D (ATCC, HTB-133) and a human mammary gland epithelial cell 184A1 (ATCC, CRL-8798) which had been trypsinized with Trypsin (manufactured by Invitrogen) were washed once with a FACS buffer (PBS containing 5% FCS, 0.05% sodium azide), and suspended in 100 μl of a FACS buffer containing 10 μg/ml 1B2 antibody and the reaction was allowed to proceed at room temperature for 2 hours. The resultant reaction product was washed with a FACS buffer two times, and suspended in 200 μl of FITC-Goat Anti-Mouse IgG (manufactured by ZYMED), and the reaction was allowed to proceed at room temperature for 1 hour. After washing with a FACS buffer two times, analysis was performed by FACSAria (manufactured by BD). As a result, in T-47D, the 1B2 antibody greatly shifted the fluorescent signal of FACS (about 300-fold) as compared with a control mouse IgG2a antibody (manufactured by SIGMA-ALDRICH), while in 184A, fluorescent shift by 1B2 was scarcely seen (about 2-fold).

[3] = system: biotin-labeled T-47D culture supernatant; assay: Affinity of antibody, Biacore, sensor chip SA; assay type: binding, human; conditions: biotin-labeled T-47D culture supernatant solid-phased
Procedure: In addition, a human breast cancer cultured cell strain T-47D (ATCC Number HTB-133) was cultured on a Dulbecco's modified Eagle medium (DMEM; manufacture by Invitrogen), the supernatant was concentrated with Amicon ultra-100 (manufactured by MILLIPORE), and substituted with a 20 mM HEPES buffer (pH 7.6) containing 0.15 M NaCl. Sulfo-NHS-Biotin (manufactured by PIERCE) was added to 200 μl of the T-47D culture supernatant, followed by reaction on ice for 2 hours. Thereafter, substitution with a 20 mM Tris buffer (pH 7.6) containing 0.15 M NaCl was performed with a PD-10 column (manufactured by GE Healthcare) to obtain a biotin-labeled T-47D culture supernatant.

[4] = read-out: dissociation constant KD

T1 sequence (P15941 136-235): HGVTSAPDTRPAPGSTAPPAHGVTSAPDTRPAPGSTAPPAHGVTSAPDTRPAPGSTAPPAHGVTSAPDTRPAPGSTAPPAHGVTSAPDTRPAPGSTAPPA

Kd1 [1]: 0.00015 s⁻¹ | ka1 [1]: 410000 M⁻¹ s⁻¹ | Kd [1, 4]: 0.37 nM | Kd [3, 4]: 2.6 nM
B1: 1B2: mouse monoclonal anti-MUC1 antibody, isotype IgG2a, clone from immunization with 2,3-ST(DT*R)-20 conjugated to BSA (antibody, V domains shown)
VH: MEWIWIFLFILSGTAGVQSQVQLQQSGAELARPGASVKLSCKASGYTFTNYGLSWVKQRTGQGLEWIGENHPGSGIIYHNEKFRGKATLTADKSSSTAYVQLSSLTSEDSAVYFCARSSGTRGFAYWGQGTLVTVSA
VL: MKLPVRLLVLMFWIPASSSDVLMTQTPLSLPVSLGDQASISCRSSQSIVHSNGNTYLEWYLQKPGQSPKLLIYKVSNRFSGVPDRFSGSGSGTDFTLKISRVEAEDLGVYYCFQGSHGPWTFGGGTKLEIKRA
modifications: Antibody 1B2 VH sequence; Antibody 1B2 VL sequence
reaction with mammary gland epithelial cell (FACS) ([2]; 184A1): hardly reacts | shift of fluorescent signal of FACS as compared with control mouse IgG2a antibody ([2]; 184A1, 10 μg/ml antibody): about 2 fold | Kd1 [3]: 0.0012 s⁻¹ | ka1 [3]: 470000 M⁻¹ s⁻¹
